Results taken from patent US20200164029A1 (ACCELERON PHARMA, published 2020).

T1: hENG(458-586)-hFc (human, UniProt P17813 458-586)
T1 construct: Expressed in COS cells, not purified; not shown: human IgG1 Fc domain
T1 sequence: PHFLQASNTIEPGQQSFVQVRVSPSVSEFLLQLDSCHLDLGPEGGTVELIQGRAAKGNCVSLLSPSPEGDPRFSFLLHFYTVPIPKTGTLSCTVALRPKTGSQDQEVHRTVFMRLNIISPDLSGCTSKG

T2: hENG(26-332)-hFc (human, UniProt P17813 26-332)
T2 construct: not shown: human IgG1 Fc domain
T2 sequence: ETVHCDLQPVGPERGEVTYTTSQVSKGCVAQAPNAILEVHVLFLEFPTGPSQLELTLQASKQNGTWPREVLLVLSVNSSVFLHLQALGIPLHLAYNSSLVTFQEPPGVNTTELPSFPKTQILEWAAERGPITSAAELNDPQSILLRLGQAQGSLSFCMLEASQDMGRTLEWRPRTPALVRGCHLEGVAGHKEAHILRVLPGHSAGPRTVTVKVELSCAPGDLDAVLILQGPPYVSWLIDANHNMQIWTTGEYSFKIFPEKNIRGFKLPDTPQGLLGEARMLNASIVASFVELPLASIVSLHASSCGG

T3: hENG(61-346)-hFc (human, UniProt P17813 61-346)
T3 construct: not shown: human IgG1 Fc domain
T3 sequence: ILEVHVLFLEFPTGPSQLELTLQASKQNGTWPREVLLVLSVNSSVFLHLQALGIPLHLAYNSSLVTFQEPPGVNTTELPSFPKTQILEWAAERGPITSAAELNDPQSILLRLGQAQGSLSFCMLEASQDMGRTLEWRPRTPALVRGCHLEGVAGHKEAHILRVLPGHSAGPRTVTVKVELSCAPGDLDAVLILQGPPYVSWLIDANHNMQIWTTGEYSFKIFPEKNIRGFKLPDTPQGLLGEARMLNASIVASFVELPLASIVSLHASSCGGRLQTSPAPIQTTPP

T4: hENG(133-346)-hFc (human, UniProt P17813 133-346)
T4 construct: not shown: human IgG1 Fc domain
T4 sequence: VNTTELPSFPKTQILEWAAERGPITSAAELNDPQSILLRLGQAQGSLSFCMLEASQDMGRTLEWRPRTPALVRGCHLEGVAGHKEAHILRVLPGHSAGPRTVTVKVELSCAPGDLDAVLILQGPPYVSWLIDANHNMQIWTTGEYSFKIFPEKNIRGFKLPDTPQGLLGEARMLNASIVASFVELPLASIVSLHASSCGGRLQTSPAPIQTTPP

T5: hENG(26-257)-hFc (human, UniProt P17813 26-257)
T5 construct: not shown: human IgG1 Fc domain
T5 sequence: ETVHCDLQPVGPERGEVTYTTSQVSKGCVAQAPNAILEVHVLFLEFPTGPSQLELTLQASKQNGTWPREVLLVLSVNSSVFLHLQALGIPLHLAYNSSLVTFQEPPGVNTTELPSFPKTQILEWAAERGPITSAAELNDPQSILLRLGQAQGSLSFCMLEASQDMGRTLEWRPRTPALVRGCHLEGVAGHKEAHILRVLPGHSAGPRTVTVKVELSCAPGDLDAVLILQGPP

T6: hENG(129-346)-hFc (human, UniProt P17813 129-346)
T6 construct: not shown: human IgG1 Fc domain
T6 sequence: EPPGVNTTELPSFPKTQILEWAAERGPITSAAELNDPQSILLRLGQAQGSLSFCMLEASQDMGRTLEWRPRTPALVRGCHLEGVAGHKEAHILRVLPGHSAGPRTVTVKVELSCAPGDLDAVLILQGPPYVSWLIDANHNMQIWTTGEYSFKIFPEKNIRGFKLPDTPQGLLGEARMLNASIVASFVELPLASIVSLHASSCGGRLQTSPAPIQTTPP

T7: hENG(458-581)-hFc (human, UniProt P17813 458-581)
T7 construct: Expressed in COS cells, not purified; not shown: human IgG1 Fc domain
T7 sequence: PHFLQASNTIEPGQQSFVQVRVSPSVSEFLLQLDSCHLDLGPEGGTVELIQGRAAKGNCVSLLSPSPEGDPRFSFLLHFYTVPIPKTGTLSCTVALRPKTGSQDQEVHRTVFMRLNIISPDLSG

T8: hENG(360-586)-hFc (human, UniProt P17813 360-586)
T8 construct: not shown: human IgG1 Fc domain
T8 sequence: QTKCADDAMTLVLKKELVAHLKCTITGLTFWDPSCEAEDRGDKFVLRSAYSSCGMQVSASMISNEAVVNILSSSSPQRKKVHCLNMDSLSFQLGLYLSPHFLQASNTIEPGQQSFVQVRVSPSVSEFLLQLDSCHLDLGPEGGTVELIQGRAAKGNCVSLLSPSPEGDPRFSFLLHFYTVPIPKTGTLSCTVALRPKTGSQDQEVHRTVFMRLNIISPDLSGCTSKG

T9: hENG(26-581)-hFc (human, UniProt P17813 26-581)
T9 construct: not shown: human IgG1 Fc domain
T9 sequence: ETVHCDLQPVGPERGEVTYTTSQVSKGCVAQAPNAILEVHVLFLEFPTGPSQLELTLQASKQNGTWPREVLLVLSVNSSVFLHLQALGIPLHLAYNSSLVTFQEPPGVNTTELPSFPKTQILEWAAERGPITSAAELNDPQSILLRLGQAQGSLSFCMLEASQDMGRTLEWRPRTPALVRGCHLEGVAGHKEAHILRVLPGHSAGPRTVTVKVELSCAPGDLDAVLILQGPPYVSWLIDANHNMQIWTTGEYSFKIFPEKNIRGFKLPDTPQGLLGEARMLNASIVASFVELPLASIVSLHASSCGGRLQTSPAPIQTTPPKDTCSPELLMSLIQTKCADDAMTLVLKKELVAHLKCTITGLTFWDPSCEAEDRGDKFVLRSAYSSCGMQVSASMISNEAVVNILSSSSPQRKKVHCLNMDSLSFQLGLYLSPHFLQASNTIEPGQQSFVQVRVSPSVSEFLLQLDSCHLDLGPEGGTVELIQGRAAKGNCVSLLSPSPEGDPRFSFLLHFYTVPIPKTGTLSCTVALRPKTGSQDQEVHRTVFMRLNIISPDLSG


Assays:
hENG(458-586)-hFc = biological target: T1, hENG(458-586)-hFc; test: SPR, captured hENG-hFc, soluble ligand
hENG(26-332)-hFc = biological target: T2, hENG(26-332)-hFc; test: SPR, captured hENG-hFc, soluble ligand
hENG(61-346)-hFc = biological target: T3, hENG(61-346)-hFc; test: SPR, captured hENG-hFc, soluble ligand
hENG(133-346)-hFc = biological target: T4, hENG(133-346)-hFc; test: SPR, captured hENG-hFc, soluble ligand
hENG(26-257)-hFc = biological target: T5, hENG(26-257)-hFc; test: SPR, captured hENG-hFc, soluble ligand
hENG(129-346)-hFc = biological target: T6, hENG(129-346)-hFc; test: SPR, captured hENG-hFc, soluble ligand
hENG(458-581)-hFc = biological target: T7, hENG(458-581)-hFc; test: SPR, captured hENG-hFc, soluble ligand
hENG(360-586)-hFc = biological target: T8, hENG(360-586)-hFc; test: SPR, captured hENG-hFc, soluble ligand
hENG(26-581)-hFc = biological target: T9, hENG(26-581)-hFc; test: SPR, captured hENG-hFc, ligand at 100 nM; ++++ = KD < 1 nM

Row | binding result (hENG(458-586)-hFc) | binding result (hENG(26-332)-hFc) | binding result (hENG(61-346)-hFc) | binding result (hENG(133-346)-hFc) | binding result (hENG(26-257)-hFc) | binding result (hENG(129-346)-hFc) | binding result (hENG(458-581)-hFc) | binding result (hENG(360-586)-hFc) | binding result (hENG(26-581)-hFc) | Binder
1 | no binding (tested: 100 nM) | no binding (tested: 100 nM) | no binding (tested: 100 nM) | no binding (tested: 100 nM) | no binding (tested: 100 nM) | no binding (tested: 100 nM) | no binding (tested: 100 nM) | no binding (tested: 100 nM) | binds | human BMP-9 (ligand, UniProt Q9UK05 320-429, looked up, also called hBMP-9) SAGAGSHCQKTSLRVNFEDIGWDSWIIAPKEYEAYECKGGCFFPLADDVTPTKHAIVQTLVHLKFPTKVGKACCVPTKLSPISVLYKDDMGVPTLKYHYEGMSVAECGCR
2 | no binding (tested: 100 nM) | no binding (tested: 100 nM) | no binding (tested: 100 nM) | no binding (tested: 100 nM) | no binding (tested: 100 nM) | no binding (tested: 100 nM) | no binding (tested: 100 nM) | no binding (tested: 100 nM) | binds | human BMP-10 (ligand, UniProt O95393 317-424, looked up, also called hBMP-10) NAKGNYCKRTPLYIDFKEIGWDSWIIAPPGYEAYECRGVCNYPLAEHLTPTKHAIIQALVHLKNSQKASKACCVPTKLEPISILYLDKGVVTYKFKYEGMAVSECGCR
